# ± gives the uncertainty stated by the source.
# Test: self-splicing fitness, log relative to wild type (ln ratio); higher = more splicing; Tetrahymena group I intron in knt gene, E. coli kanamycin selection, DiMSum; sequences stand for … in CUCUCU…GGAGGGAAAAGUUAUCAGGCAUGCACCUGGUAGCUAGUCUUUAAACCAAUAGAUUGCAUCGGUUUAAAAGGCAAGACCGUCAAAUUGCGGGAAAGGGGUCAACAGCCGUUCAGUACCAAGUCUCAGGGGAAACUUUGAGAUGGCCUUGCAAAGGGUAUGGUAAUAAGCUGACGGACAUGGUCCUAACCACGCAGCCAAGUCCUAAGUCAACAGAUCUUCUGUUGAUAUGGAUGCAGUUCACAGACUAAAUGUCGGUCGGGGAAGAUGUAUUCUUCUCAUAAGAUAUAGUCGGACCUCUCCUUAAUGGGAGCUAGCGGAUGAAGUGAUGCAACACUGGAGCCGCUGGGAACUAAUUUGUAUGCGAAAGUAUAUUGAUUAGUUUUGGAGUACUCGUGGUCG
# In short: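 Six replicate transformations of E. coli BL21(DE3) with a pET-22b(+) library were grown overnight at 37°C or 30°C. The library randomised all eight P1ex-region intron nucleotides, the intron lying in the knt kanamycin-resistance gene, and plates were LB agar with or without 25 μg/mL kanamycin plus 100 μg/mL carbenicillin, 50 μM IPTG and 0.2% rhamnose. Pooled colonies were amplicon-sequenced on an Illumina HiSeq 2500, and fitness is the DiMSum error-weighted combination of wild-type-normalised replicate fold changes, kanamycin versus none.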
Sequence,self-splicing fitness (ln) (30 °C),self-splicing fitness (ln) (37 °C)
GGUCAGCAAUAUUACGGGGA,-1.25 ± 0.17,-1.87 ± 0.2
UGUAAGCAAUAUUACGAUUU,-1.82 ± 0.17,-1.24 ± 0.14
CUAUAGCAAUAUUACGGAUU,-3.43 ± 0.24,-2.29 ± 0.24
CUGCAGCAAUAUUACGGCGU,–,-1.04 ± 0.32
GAACAGCAAUAUUACGUGAU,-0.746 ± 0.058,-0.432 ± 0.075
CUUGAGCAAUAUUACGAUAG,-2.67 ± 0.18,-0.896 ± 0.2
UCCUAGCAAUAUUACGAACG,-1.85 ± 0.2,-1.78 ± 0.3
UUAAAGCAAUAUUACGCGAC,-2.19 ± 0.15,-1.72 ± 0.17
ACGCAGCAAUAUUACGCUGA,-0.604 ± 0.095,-0.835 ± 0.11
UGACAGCAAUAUUACGCAGA,-1.96 ± 0.15,-1.11 ± 0.13
CAGGAGCAAUAUUACGCAUA,–,-1.73 ± 0.33
CUUGAGCAAUAUUACGAUCU,–,-1.04 ± 0.31
CGCUAGCAAUAUUACGUACC,-1.89 ± 0.27,-0.55 ± 0.2
AGAUAGCAAUAUUACGUGUC,-3.36 ± 0.28,-3.11 ± 0.27
UUAAAGCAAUAUUACGCUGC,-2.18 ± 0.15,-2.71 ± 0.38
UUGGAGCAAUAUUACGUAAG,-2.23 ± 0.26,-0.995 ± 0.24
GGUGAGCAAUAUUACGGAUU,-0.567 ± 0.14,-1.26 ± 0.19
AUUAAGCAAUAUUACGUCUG,-1.74 ± 0.11,-0.762 ± 0.12
GUCGAGCAAUAUUACGAUCG,-3.65 ± 0.23,-1.38 ± 0.18
CGGUAGCAAUAUUACGGUGC,-2.22 ± 0.27,-2.48 ± 0.38
UACGAGCAAUAUUACGCGUC,-1.91 ± 0.13,-2.3 ± 0.19
GUUGAGCAAUAUUACGACGA,-3.3 ± 0.32,-2.2 ± 0.27
ACAAAGCAAUAUUACGUGGC,-3.72 ± 0.21,-2.91 ± 0.18
CCGAAGCAAUAUUACGUUAA,–,-0.989 ± 0.23
UUUGAGCAAUAUUACGACAU,-3.673 ± 0.034,-2.43 ± 0.043

Sequence,self-splicing fitness (ln) (30 °C),self-splicing fitness (ln) (37 °C)
UUUGAGCAAUAUUACGGGAA,-2.02 ± 0.39,-2.22 ± 0.32
GACCAGCAAUAUUACGGGAA,-0.695 ± 0.06,-0.941 ± 0.067
GGUGAGCAAUAUUACGGUCU,-0.893 ± 0.14,-0.768 ± 0.2
CCCCAGCAAUAUUACGGCUC,-3.43 ± 0.18,-2.75 ± 0.33
UUUCAGCAAUAUUACGUCUA,-0.33 ± 0.077,0.101 ± 0.079
AGGCAGCAAUAUUACGCAAU,-2.26 ± 0.14,-1.76 ± 0.094
UUCAAGCAAUAUUACGCAAC,–,-1.43 ± 0.47
CGAUAGCAAUAUUACGUGGU,-3.97 ± 0.16,-1.94 ± 0.12
GCUGAGCAAUAUUACGUUCG,-2.34 ± 0.12,-1.17 ± 0.12
GACUAGCAAUAUUACGAGAC,-3.56 ± 0.43,-1.76 ± 0.27
CCUGAGCAAUAUUACGCGCG,-3.05 ± 0.21,-3.29 ± 0.26
UGUAAGCAAUAUUACGCACA,-1.44 ± 0.13,-0.574 ± 0.17
UUAUAGCAAUAUUACGACAA,-0.403 ± 0.12,-0.279 ± 0.11
ACUGAGCAAUAUUACGUACU,-2.16 ± 0.19,-1.42 ± 0.19
GUGAAGCAAUAUUACGCCGG,-1.96 ± 0.45,–
AUUUAGCAAUAUUACGCCUA,-1.24 ± 0.2,0.0334 ± 0.19
CCACAGCAAUAUUACGAGCC,-3.22 ± 0.42,-2.3 ± 0.31
AGGGAGCAAUAUUACGCCGA,-2.38 ± 0.25,–
CACAAGCAAUAUUACGAUCC,-2.35 ± 0.21,-1.45 ± 0.23
UGGGAGCAAUAUUACGUGCC,-2.29 ± 0.34,-2.09 ± 0.35
AAUGAGCAAUAUUACGAAUG,-3.34 ± 0.36,–
ACCGAGCAAUAUUACGUAGG,-3.76 ± 0.2,-2.79 ± 0.24
GUUCAGCAAUAUUACGGCCA,-0.626 ± 0.12,-0.426 ± 0.15
ACACAGCAAUAUUACGCGAA,-2.47 ± 0.12,-1.4 ± 0.12
CCUUAGCAAUAUUACGCUUA,-3.61 ± 0.34,-2.66 ± 0.33
